Reference: IntAct's records for PubMed 35512704

B1: Speckle-type POZ protein (Homo sapiens), O43791 (parent)
chain: MSRVPSPPPPAEMSSGPVAESWCYTQIKVVKFSYMWTINNFSFCREEMGEVIKSSTFSSGANDKLKWCLRVNPKGLDEESKDYLSLYLLLVSCPKSEVRAKFKFSILNAKGEETKAMESQRAYRFVQGKDWGFKKFIRRDFLLDEANGLLPDDKLTLFCEVSVVQDSVNISGQNTMNMVKVPECRLADELGGLWENSRFTDCCLCVAGQEFQAHKAILAARSPVFSAMFEHEMEESKKNRVEINDVEPEVFKEMMCFIYTGKAPNLDKMADDLLAAADKYALERLKVMCEDALCSNLSVENAAEILILADLHSADQLKTQAVDFINYHASDVLETSGWKSMVVSHPHLVAEAYRSLASAQCPFLGPPRKRLKQS

Variants of: B1
Details: with mycn_human MYCN

Variant | effect of a mutation on the interaction
F133V | with no effect

Variants of: B1
Details: with ncoa3_human NCOA3, Q9Y6Q9

Variant | effect of a mutation on the interaction
F133V | with no effect

Variants of: B1
Details: with ikba_human NFKBIA

Variant | effect of a mutation on the interaction
F133V | with no effect

Variants of: B1
Details: with nox1_human NOX1, Q9Y5S8

Variant | effect of a mutation on the interaction
F133V | with no effect

Variants of: B1
Details: with npm_human NPM1, P06748

Variant | effect of a mutation on the interaction
F133V | with no effect

Variants of: B1
Details: with nsd3_human NSD3, Q9BZ95
Chain of nsd3_human NSD3, Q9BZ95 (Q9BZ95 whole entry): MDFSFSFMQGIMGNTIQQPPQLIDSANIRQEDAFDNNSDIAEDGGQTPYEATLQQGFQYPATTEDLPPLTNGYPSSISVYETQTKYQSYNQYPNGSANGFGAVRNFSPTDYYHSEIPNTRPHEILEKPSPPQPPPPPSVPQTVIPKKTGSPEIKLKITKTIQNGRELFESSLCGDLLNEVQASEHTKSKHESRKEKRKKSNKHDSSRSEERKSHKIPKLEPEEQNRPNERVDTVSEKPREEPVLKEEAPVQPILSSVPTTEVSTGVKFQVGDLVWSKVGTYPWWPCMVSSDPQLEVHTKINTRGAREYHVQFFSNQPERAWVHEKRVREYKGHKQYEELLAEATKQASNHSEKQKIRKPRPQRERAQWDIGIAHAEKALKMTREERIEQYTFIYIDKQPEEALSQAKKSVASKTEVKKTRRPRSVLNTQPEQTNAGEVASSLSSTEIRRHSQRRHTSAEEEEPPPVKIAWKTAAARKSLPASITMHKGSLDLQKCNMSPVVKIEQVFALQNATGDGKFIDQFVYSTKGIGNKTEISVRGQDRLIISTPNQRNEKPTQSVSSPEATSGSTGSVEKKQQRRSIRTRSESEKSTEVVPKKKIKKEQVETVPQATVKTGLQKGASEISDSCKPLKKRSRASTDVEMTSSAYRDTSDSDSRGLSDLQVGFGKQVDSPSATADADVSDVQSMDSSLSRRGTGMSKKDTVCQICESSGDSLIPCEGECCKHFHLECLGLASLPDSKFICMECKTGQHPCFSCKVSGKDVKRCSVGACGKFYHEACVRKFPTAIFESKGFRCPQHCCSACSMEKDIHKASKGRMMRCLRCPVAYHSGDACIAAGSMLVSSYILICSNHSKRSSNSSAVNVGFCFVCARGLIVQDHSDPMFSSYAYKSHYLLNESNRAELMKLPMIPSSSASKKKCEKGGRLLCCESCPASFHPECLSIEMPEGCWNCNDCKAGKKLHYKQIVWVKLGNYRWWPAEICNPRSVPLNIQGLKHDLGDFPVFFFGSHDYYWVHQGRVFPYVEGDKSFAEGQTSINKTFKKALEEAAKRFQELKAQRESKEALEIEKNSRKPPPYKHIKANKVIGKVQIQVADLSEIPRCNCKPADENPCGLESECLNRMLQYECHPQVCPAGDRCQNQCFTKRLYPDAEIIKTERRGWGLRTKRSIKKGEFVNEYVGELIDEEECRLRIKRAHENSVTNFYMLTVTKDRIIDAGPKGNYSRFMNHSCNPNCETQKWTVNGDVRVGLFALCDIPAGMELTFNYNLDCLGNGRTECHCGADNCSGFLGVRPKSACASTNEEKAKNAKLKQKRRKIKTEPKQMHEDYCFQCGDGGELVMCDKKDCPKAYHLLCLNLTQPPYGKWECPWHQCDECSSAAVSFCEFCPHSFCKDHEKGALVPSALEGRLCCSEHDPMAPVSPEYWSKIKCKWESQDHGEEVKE

Variant | effect of a mutation on the interaction
F133V | with no effect

Variants of: B1
Details: with ntrk2_human NTRK2, Q16620

Variant | effect of a mutation on the interaction
F133V | with no effect

Variants of: B1
Details: with ntrk3_human NTRK3, Q16288

Variant | effect of a mutation on the interaction
F133V | with no effect

Variants of: B1
Details: with pak3_human PAK3, O75914

Variant | effect of a mutation on the interaction
F133V | with no effect

Variants of: B1
Details: with prkn_human PRKN

Variant | effect of a mutation on the interaction
F133V | with no effect

Variants of: B1
Details: with pb1_human PBRM1, Q86U86

Variant | effect of a mutation on the interaction
F133V | with no effect

Variants of: B1
Details: with pcbp1_human PCBP1, Q15365
Chain of pcbp1_human PCBP1, Q15365 (Q15365 whole entry): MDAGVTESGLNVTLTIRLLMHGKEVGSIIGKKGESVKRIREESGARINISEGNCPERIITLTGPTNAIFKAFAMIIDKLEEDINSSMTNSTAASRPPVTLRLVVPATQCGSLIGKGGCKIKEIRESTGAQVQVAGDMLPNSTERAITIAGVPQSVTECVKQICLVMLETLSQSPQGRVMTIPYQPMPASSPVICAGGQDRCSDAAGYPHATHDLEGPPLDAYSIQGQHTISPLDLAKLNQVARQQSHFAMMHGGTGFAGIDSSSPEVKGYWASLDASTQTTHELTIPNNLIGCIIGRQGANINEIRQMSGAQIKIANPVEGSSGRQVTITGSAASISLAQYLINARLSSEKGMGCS

Variant | effect of a mutation on the interaction
F133V | with no effect

Variants of: B1
Details: with pdcd1_human PDCD1, Q15116

Variant | effect of a mutation on the interaction
F133V | with no effect

Variants of: B1
Details: with pgfrb_human PDGFRB

Variant | effect of a mutation on the interaction
F133V | with no effect

Variants of: B1
Details: with pdk1_human PDK1, Q15118
Chain of pdk1_human PDK1, Q15118 (Q15118 whole entry, looked up): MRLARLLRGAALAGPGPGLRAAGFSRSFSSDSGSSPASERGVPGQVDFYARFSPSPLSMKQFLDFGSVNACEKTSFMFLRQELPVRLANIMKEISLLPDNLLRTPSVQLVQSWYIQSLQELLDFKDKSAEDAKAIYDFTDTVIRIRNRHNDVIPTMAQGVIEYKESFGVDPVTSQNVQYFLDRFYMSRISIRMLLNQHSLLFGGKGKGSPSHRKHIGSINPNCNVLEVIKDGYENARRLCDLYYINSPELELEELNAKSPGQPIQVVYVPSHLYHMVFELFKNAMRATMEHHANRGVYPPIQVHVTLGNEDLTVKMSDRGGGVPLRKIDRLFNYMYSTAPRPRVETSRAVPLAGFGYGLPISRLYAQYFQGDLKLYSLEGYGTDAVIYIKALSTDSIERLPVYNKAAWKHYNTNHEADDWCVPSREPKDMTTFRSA

Variant | effect of a mutation on the interaction
F133V | with no effect

Variants of: B1
Details: with pk3ca_human PIK3CA

Variant | effect of a mutation on the interaction
F133V | with no effect

Variants of: B1
Details: with pk3cb_human PIK3CB

Variant | effect of a mutation on the interaction
F133V | with no effect

Variants of: B1
Details: with pk3cg_human PIK3CG

Variant | effect of a mutation on the interaction
F133V | with no effect

Variants of: B1
Details: with p85b_human PIK3R2, O00459

Variant | effect of a mutation on the interaction
F133V | with no effect

Variants of: B1
Details: with dpod1_human POLD1, P28340

Variant | effect of a mutation on the interaction
F133V | with no effect

Variants of: B1
Details: with dpoe1_human POLE

Variant | effect of a mutation on the interaction
F133V | with no effect

Variants of: B1
Details: with ppard_human PPARD

Variant | effect of a mutation on the interaction
F133V | with no effect

Variants of: B1
Details: with prdm1_human PRDM1, O75626
Chain of prdm1_human PRDM1, O75626 (O75626 whole entry): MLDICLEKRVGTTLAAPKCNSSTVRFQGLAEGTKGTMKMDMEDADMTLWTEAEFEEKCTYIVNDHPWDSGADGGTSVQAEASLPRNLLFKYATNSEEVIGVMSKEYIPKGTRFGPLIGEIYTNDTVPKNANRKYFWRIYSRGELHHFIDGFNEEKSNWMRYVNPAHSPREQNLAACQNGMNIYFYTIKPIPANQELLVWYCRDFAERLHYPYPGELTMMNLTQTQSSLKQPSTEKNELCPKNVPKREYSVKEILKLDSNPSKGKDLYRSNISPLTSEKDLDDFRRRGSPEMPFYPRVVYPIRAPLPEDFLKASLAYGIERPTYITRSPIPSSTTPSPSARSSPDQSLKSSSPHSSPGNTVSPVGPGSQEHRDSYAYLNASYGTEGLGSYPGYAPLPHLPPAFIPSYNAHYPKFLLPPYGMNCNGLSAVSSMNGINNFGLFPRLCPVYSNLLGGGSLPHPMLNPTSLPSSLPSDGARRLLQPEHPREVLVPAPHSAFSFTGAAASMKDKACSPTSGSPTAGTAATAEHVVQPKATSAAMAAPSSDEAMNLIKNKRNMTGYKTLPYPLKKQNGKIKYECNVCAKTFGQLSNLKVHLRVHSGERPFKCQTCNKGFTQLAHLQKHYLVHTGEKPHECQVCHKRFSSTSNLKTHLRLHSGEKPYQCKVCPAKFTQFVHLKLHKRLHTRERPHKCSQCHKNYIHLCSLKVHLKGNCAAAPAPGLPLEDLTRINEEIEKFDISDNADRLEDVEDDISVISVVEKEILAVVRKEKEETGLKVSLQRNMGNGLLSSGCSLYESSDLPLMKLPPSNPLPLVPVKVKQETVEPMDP

Variant | effect of a mutation on the interaction
F133V | with no effect

Variants of: B1
Details: with prex2_human PREX2, Q70Z35

Variant | effect of a mutation on the interaction
F133V | with no effect

Variants of: B1
Details: with aapk2_human PRKAA2, P54646

Variant | effect of a mutation on the interaction
F133V | with no effect

Variants of: B1
Details: with prss8_human PRSS8, Q16651

Variant | effect of a mutation on the interaction
F133V | with no effect

Variants of: B1
Details: with ptk6_human PTK6, Q13882

Variant | effect of a mutation on the interaction
F133V | with no effect

Variants of: B1
Details: with tf65_human RELA

Variant | effect of a mutation on the interaction
F133V | with no effect

Variants of: B1
Details: with rictr_human RICTOR

Variant | effect of a mutation on the interaction
F133V | with no effect

Variants of: B1
Details: with rnf43_human RNF43, Q68DV7

Variant | effect of a mutation on the interaction
F133V | with no effect

Variants of: B1
Details: with ros1_human ROS1, P08922

Variant | effect of a mutation on the interaction
F133V | with no effect

Variants of: B1
Details: with rl11_human RPL11, P62913

Variant | effect of a mutation on the interaction
F133V | with no effect

Variants of: B1
Details: with rl5_human RPL5, P46777

Variant | effect of a mutation on the interaction
F133V | with no effect

Variants of: B1
Details: with rs15_human RPS15, P62841

Variant | effect of a mutation on the interaction
F133V | with no effect

Variants of: B1
Details: with rxra_human RXRA

Variant | effect of a mutation on the interaction
F133V | with no effect

Variants of: B1
Details: with sdha_human SDHA

Variant | effect of a mutation on the interaction
F133V | with no effect

Variants of: B1
Details: with setbp_human SETBP1, Q9Y6X0

Variant | effect of a mutation on the interaction
F133V | with no effect

Variants of: B1
Details: with setb1_human SETDB1, Q15047

Variant | effect of a mutation on the interaction
F133V | with no effect

Variants of: B1
Details: with skp2_human SKP2, Q13309

Variant | effect of a mutation on the interaction
F133V | with no effect

Variants of: B1
Details: with xct_human SLC7A11, Q9UPY5

Variant | effect of a mutation on the interaction
F133V | with no effect

Variants of: B1
Details: with smad1_human SMAD1, Q15797

Variant | effect of a mutation on the interaction
F133V | with no effect

Variants of: B1
Details: with smca4_human SMARCA4, P51532

Variant | effect of a mutation on the interaction
F133V | with no effect

Variants of: B1
Details: with snf5_human SMARCB1, Q12824

Variant | effect of a mutation on the interaction
F133V | with no effect

Variants of: B1
Details: with smo_human SMO

Variant | effect of a mutation on the interaction
F133V | with no effect

Variants of: B1
Details: with smuf1_human SMURF1, Q9HCE7

Variant | effect of a mutation on the interaction
F133V | with no effect

Variants of: B1
Details: with socs1_human SOCS1, O15524
Chain of socs1_human SOCS1, O15524 (O15524 whole entry): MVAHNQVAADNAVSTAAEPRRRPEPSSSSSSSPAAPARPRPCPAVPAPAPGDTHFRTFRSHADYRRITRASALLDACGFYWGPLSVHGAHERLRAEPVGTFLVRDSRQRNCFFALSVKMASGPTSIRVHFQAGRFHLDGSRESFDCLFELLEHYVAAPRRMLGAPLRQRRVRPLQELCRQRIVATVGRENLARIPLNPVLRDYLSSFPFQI

Variant | effect of a mutation on the interaction
F133V | with no effect

Variants of: B1
Details: with sox10_human SOX10, P56693

Variant | effect of a mutation on the interaction
F133V | with no effect

Variants of: B1
Details: with sox2_human SOX2, P48431
Chain of sox2_human SOX2, P48431 (P48431 whole entry): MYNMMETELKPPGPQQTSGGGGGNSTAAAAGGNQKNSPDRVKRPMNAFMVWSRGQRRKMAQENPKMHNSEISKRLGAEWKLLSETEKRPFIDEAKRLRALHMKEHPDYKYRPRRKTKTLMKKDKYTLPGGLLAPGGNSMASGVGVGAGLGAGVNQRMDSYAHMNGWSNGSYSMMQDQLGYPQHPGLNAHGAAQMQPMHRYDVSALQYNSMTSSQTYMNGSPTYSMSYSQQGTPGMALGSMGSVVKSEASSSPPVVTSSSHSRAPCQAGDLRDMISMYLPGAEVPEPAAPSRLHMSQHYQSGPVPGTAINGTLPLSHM

Variant | effect of a mutation on the interaction
F133V | with no effect

Variants of: B1
Details: with src_human SRC

Variant | effect of a mutation on the interaction
F133V | with no effect

Variants of: B1
Details: with whr1_human WHR1, P49842

Variant | effect of a mutation on the interaction
F133V | with no effect

Variants of: B1
Details: with stk38_human STK38, Q15208
Chain of stk38_human STK38, Q15208 (Q15208 whole entry, looked up): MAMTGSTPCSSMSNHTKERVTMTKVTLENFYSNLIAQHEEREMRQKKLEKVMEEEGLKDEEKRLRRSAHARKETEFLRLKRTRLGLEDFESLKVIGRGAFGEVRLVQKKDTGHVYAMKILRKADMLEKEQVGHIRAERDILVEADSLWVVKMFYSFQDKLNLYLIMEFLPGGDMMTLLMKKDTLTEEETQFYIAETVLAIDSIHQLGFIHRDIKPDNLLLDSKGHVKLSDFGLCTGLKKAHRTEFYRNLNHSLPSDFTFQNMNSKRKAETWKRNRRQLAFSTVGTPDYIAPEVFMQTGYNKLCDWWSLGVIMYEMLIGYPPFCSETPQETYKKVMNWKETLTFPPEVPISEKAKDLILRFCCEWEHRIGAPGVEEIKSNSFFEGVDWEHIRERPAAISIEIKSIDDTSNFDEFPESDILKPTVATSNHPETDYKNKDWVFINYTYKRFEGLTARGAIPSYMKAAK

Variant | effect of a mutation on the interaction
F133V | with no effect

Variants of: B1
Details: with eloc_human ELOC

Variant | effect of a mutation on the interaction
F133V | with no effect

Variants of: B1
Details: with tfe2_human TCF3, P15923

Variant | effect of a mutation on the interaction
F133V | with no effect

Variants of: B1
Details: with tead1_human TEAD1, P28347

Variant | effect of a mutation on the interaction
F133V | with no effect

Variants of: B1
Details: with tead3_human TEAD3, Q99594
Chain of tead3_human TEAD3, Q99594 (Q99594 whole entry): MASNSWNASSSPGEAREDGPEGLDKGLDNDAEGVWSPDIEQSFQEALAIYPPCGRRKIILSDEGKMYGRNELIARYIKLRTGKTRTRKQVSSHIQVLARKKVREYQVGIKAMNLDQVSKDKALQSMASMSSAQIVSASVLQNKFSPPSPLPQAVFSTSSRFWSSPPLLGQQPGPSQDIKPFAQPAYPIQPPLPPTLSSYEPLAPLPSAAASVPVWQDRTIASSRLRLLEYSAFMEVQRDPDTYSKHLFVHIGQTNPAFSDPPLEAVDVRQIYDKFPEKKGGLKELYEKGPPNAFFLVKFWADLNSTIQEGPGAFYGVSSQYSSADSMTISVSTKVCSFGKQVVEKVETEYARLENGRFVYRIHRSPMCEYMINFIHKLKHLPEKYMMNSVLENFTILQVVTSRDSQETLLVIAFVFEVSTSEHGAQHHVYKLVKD

Variant | effect of a mutation on the interaction
F133V | with no effect

Variants of: B1
Details: with tead4_human TEAD4, Q15561
Chain of tead4_human TEAD4, Q15561 (Q15561 whole entry): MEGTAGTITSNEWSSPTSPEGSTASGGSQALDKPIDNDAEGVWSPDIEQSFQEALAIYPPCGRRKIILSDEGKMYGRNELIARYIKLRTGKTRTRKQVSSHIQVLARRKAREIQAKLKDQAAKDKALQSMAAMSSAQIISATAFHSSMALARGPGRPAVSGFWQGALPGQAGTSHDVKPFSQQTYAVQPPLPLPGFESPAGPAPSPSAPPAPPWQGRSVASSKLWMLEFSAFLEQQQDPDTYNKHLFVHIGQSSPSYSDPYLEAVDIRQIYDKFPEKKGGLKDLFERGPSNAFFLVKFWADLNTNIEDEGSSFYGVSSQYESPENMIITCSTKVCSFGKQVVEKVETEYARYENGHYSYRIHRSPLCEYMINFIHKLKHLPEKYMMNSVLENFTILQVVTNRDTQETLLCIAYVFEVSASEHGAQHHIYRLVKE

Variant | effect of a mutation on the interaction
F133V | with no effect

Variants of: B1
Details: with tgfr2_human TGFBR2, P37173

Variant | effect of a mutation on the interaction
F133V | with no effect

Variants of: B1
Details: with tnr14_human TNFRSF14, Q92956

Variant | effect of a mutation on the interaction
F133V | with no effect

Variants of: B1
Details: with tpx2_human TPX2, Q9ULW0

Variant | effect of a mutation on the interaction
F133V | with no effect

Variants of: B1
Details: with tsc2_human TSC2, P49815

Variant | effect of a mutation on the interaction
F133V | with no effect

Variants of: B1
Details: with tshr_human TSHR

Variant | effect of a mutation on the interaction
F133V | with no effect

Variants of: B1
Details: with vegfa_human VEGFA

Variant | effect of a mutation on the interaction
F133V | with no effect

Variants of: B1
Details: with vhl_human VHL

Variant | effect of a mutation on the interaction
F133V | with no effect

Variants of: B1
Details: with wee1_human WEE1, P30291

Variant | effect of a mutation on the interaction
F133V | with no effect

Variants of: B1
Details: with wwtr1_human WWTR1, Q9GZV5

Variant | effect of a mutation on the interaction
F133V | with no effect

Variants of: B1
Details: with xpo1_human XPO1, O14980

Variant | effect of a mutation on the interaction
F133V | with no effect

Variants of: B1
Details: with cblb_human CBLB

Variant | effect of a mutation on the interaction
F133V | causing an interaction

Variants of: B1
Details: with jun_human JUN

Variant | effect of a mutation on the interaction
F133V | causing an interaction

Variants of: B1
Details: with kdm6a_human KDM6A

Variant | effect of a mutation on the interaction
F133V | causing an interaction

Variants of: B1
Details: with pax5_human PAX5, Q02548

Variant | effect of a mutation on the interaction
F133V | causing an interaction

Variants of: B1
Details: with PIK3C2B

Variant | effect of a mutation on the interaction
F133V | causing an interaction

Variants of: B1
Details: with e2f5_human E2F5, Q15329

Variant | effect of a mutation on the interaction
F133V | causing an interaction

Variants of: B1
Details: with cul3_human CUL3, Q13618

Variant | effect of a mutation on the interaction
F133V | increasing interaction strength

Variants of: B1
Details: with etv1_human ETV1, P50549

Variant | effect of a mutation on the interaction
F133V | decreasing interaction strength
